Our source for the Km values is article PMC3863716.

In data set [1] the test system is CCCCCCCCCCCCCC(=O)SCCNC(=O)CCNC(=O)[C@H](O)C(C)(C)COP(=O)(O)OP(=O)(O)OC[C@H]1O[C@@H](n2cnc3c(N)ncnc32)[C@H](O)[C@@H]1OP(=O)(O)O. Description: purified protein.
Substrate in the data set “purified protein”: CCCCCCCCCCCCCC(=O)SCCNC(=O)CCNC(=O)[C@H](O)C(C)(C)COP(=O)(O)OP(=O)(O)OC[C@H]1O[C@@H](n2cnc3c(N)ncnc32)[C@H](O)[C@@H]1OP(=O)(O)O
Nature of the data set: purified protein. This is another data set of the same source.

Like-named read-outs stand apart in the source and are kept apart here.

For orientation: Km means the concentration of substrate that gives half-maximal velocity. Consider human NMT1 (Homo sapiens), for which, in data set [1], the Km was determined as 8.24 ± 0.62 µM.

B1: human NMT2 (Homo sapiens) (protein)
chain: AKHRYQFWDTQPVPKLDEVITSHGAIEPDKDNVRQEPYSLPQGFMWDTLDLSDAEVLKELYTLLNENYVEDDDNMFRFDYSPEFLLWALRPPGWLLQWHCGVRVSSNKKLVGFISAIPANIRIYDSVKKMVEINFLCVHKKLRSKRVAPVLIREITRRVNLEGIFQAVYTAGVVLPKPIATCRYWHRSLNPRKLVEVKFSHLSRNMTLQRTMKLYRLPDVTKTSGLRPMEPKDIKSVRELINTYLKQFHLAPVMDEEEVAHWFLPREHIIDTFVVESPNGKLTDFLSFYTLPSTVMHHPAHKSLKAAYSFYNIHTETPLLDLMSDALILAKSKGFDVFNALDLMENKTFLEKLKFGIGDGNLQYYLYNWRCPGTDSEKVGLVLQ
B1: in the data set “purified protein”, the Km amounted to 7.24 ± 0.79 µM.
